# Test results from patent publication US20110212476A1.
# Assays:
# Assay in all cases: cell-based or functional assay
# Gαi1 A326S (human) = molecular target: Gαi1 A326S (human)
# Gαi1 R178C (human) = molecular target: Gαi1 R178C (human)
# Gαi1 R178C/A326S (human) = molecular target: Gαi1 R178C/A326S (human)
# Gαi1 R178M (human) = molecular target: Gαi1 R178M (human)
# Gαi1 R178M/A326S (human) = molecular target: Gαi1 R178M/A326S (human)
# [1] = molecular target: Gαi1 wild type (full length human, His-tagged) (human)
# Chain of Gαi1 wild type (full length human, His-tagged) (human) (B2RSH2 2-354): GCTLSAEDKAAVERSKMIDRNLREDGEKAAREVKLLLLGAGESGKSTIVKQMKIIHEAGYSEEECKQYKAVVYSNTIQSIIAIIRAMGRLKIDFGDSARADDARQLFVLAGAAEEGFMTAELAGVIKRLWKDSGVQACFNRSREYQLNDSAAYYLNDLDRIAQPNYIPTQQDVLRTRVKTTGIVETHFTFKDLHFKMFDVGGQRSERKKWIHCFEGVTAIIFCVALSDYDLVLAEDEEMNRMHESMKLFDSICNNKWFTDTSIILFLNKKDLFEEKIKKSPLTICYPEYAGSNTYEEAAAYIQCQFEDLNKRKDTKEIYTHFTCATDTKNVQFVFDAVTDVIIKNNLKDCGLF
# Chain of Gαi1 R178M/A326S (human) (B2RSH2 2-354 R178M/A326S): as the sequence (B2RSH2 2-354) above, with R177M, A325S counted along it
# Chain of human His-tagged RGS4 (23-298) (P49798 other isoform, or with tags, fused parts or gaps limits assumed): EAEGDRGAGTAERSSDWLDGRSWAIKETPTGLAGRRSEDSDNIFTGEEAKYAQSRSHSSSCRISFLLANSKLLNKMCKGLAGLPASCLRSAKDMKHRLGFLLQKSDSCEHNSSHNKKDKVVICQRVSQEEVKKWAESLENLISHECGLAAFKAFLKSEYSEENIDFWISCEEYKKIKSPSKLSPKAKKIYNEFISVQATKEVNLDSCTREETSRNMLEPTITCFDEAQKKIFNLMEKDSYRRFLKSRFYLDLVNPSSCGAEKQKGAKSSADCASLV
# Chain of Gαi1 A326S (human) (B2RSH2 2-354 A326S): as the sequence (B2RSH2 2-354) above, with A325S counted along it
# Chain of Gαi1 R178C/A326S (human) (B2RSH2 2-354 R178C/A326S): as the sequence (B2RSH2 2-354) above, with R177C, A325S counted along it
# Chain of Gαi1 R178M (human) (B2RSH2 2-354 R178M): as the sequence (B2RSH2 2-354) above, with R177M counted along it
# Chain of Gαi1 R178C (human) (B2RSH2 2-354 R178C): as the sequence (B2RSH2 2-354) above, with R177C counted along it
substance,measurement,setting,value
human His-tagged RGS4 (23-298) (from UniProt P49798 23-298),GAP Factor,Gαi1 A326S (human),1.1 fold
same,"GTPase rate +RGS4 (steady state, GDP immunodetection)",Gαi1 A326S (human),0.11 min⁻¹
same,GAP Factor,Gαi1 R178C (human),0.92 fold
same,"GTPase rate +RGS4 (steady state, GDP immunodetection)",Gαi1 R178C (human),0.00035 min⁻¹
same,GAP Factor,Gαi1 R178C/A326S (human),3.63 fold
same,"GTPase rate +RGS4 (steady state, GDP immunodetection)",Gαi1 R178C/A326S (human),0.069 min⁻¹
same,GAP Factor,Gαi1 R178M (human),1.19 fold
same,"GTPase rate +RGS4 (steady state, GDP immunodetection)",Gαi1 R178M (human),0.007 min⁻¹
same,GAP Factor,Gαi1 R178M/A326S (human),6.47 fold
same,"GTPase rate +RGS4 (steady state, GDP immunodetection)",Gαi1 R178M/A326S (human),0.097 min⁻¹
same,maximum polarization shift resulting from RGS stimulation,Gαi1 R178M/A326S (human),73 mP
same,stimulation of GTPase activity,Gαi1 R178M/A326S (human),6.6 fold
same,GAP Factor,[1],0.81 fold
same,"GTPase rate +RGS4 (steady state, GDP immunodetection)",[1],0.013 min⁻¹
